From the supplement of paper PMC6757056
± gives the standard deviation of the averaged measurements.

B1: library; a variant is named by its letters at N, in order (parent)
chain: GCUGUCACCGAGAAACUGUGAAGUAUAUCUUAAACCUGGGCACUUAAAAGAUAUAUGGAGUUAGUAGUGCAACCUGCUCGGUCUGAUGAGUCCNNNNNNGGACGAAACAGC

Assays:
cyclic di-GMP [1] = variants of: B1; experiment: normalized RNA/DNA level without ligand (relative to sTRSVctl = 100) (log10 (% of sTRSVctl)); HEK293T; ligand: cyclic di-GMP (c-di-GMP-II aptamer); higher = less ribozyme self-cleavage, higher mRNA level; settings: reporter: mCherry (pCS4076), ligand present: no
Summary of the method: (§1)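 Only sequences with at least 100 DNA reads were analyzed, from HEK293T cells transfected with 4 µg per 6-well well of ribozyme switch library plasmids 72 h before RNA extraction with EDTA. Any ligand was added 1 h before transfection. RNA level was defined as RNA over DNA reads, normalized to a spiked-in non-cleaving sequence or to the top sequences, then scaled and log-transformed. The top set was 25 sequences, and the scaling was ×100 followed by log10.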

cyclic di-GMP [2] = variants of: B1; experiment: normalized RNA/DNA level with ligand (relative to sTRSVctl = 100) (log10 (% of sTRSVctl)); HEK293T; ligand: cyclic di-GMP (c-di-GMP-II aptamer); ligand concentration (+) RNA-Seq: 1 mM; higher = less ribozyme self-cleavage, higher mRNA level; settings: reporter: mCherry (pCS4076), ligand present: yes
Summary of the method: as §1

Variant	normalized RNA/DNA level without ligand (log10) (cyclic di-GMP [1])	normalized RNA/DNA level with ligand (log10) (cyclic di-GMP [2])
CGUAGU	1.69 ± 0.041	1.82 ± 0.13
UUUCCG	1.8104 ± 0.0015	1.92 ± 0.056
AGUCCU	1.77 ± 0.023	1.87 ± 0.086
AACGCA	1.67 ± 0.024	1.83 ± 0.076
GCGUGG	1.71 ± 0.051	1.78 ± 0.14
GCGUGC	1.68 ± 0.0027	1.81 ± 0.14
AACGUU	1.65 ± 0.056	1.82 ± 0.16
ACUCAU	1.61 ± 0.022	1.81 ± 0.15
GUGCCU	1.81 ± 0.04	1.87 ± 0.1
UGCCCU	1.79 ± 0.021	1.89 ± 0.057
UUAGCC	1.76 ± 0.082	1.83 ± 0.13
GUUAAC	1.67 ± 0.046	1.8 ± 0.037
AUCUGA	1.56 ± 0.099	1.71 ± 0.079
AAGCAG	1.79 ± 0.081	1.9 ± 0.11
CUGAAG	1.59 ± 0.018	1.73 ± 0.03
UAAGCC	1.78 ± 0.024	1.88 ± 0.091
AGCGUA	1.55 ± 0.087	1.71 ± 0.1
UCGUUC	1.739 ± 0.0071	1.88 ± 0.11
CGUUUC	1.59 ± 0.025	1.78 ± 0.11
UCCGCC	1.75 ± 0.076	1.89 ± 0.11
UGGGGA	1.58 ± 0.085	1.73 ± 0.073
CUGACA	1.51 ± 0.086	1.7 ± 0.075
CAUGUA	1.44 ± 0.081	1.65 ± 0.072

Variant	normalized RNA/DNA level without ligand (log10) (cyclic di-GMP [1])	normalized RNA/DNA level with ligand (log10) (cyclic di-GMP [2])
UGCGUC	1.75 ± 0.019	1.85 ± 0.13
UGCGUG	1.71 ± 0.084	1.9 ± 0.096
UCGAUC	1.62 ± 0.032	1.79 ± 0.16
UCGAUG	1.54 ± 0.1	1.72 ± 0.14
CUUCGC	1.79 ± 0.024	1.83 ± 0.056
CACUUU	1.51 ± 0.057	1.7 ± 0.17
UCGGGC	1.83 ± 0.035	1.94 ± 0.086
UUCUAG	1.75 ± 0.047	1.84 ± 0.15
GCUUUA	1.63 ± 0.023	1.83 ± 0.1
UUCCAU	1.73 ± 0.028	1.85 ± 0.15
UAUUUU	1.73 ± 0.062	1.84 ± 0.13
GACAAA	1.47 ± 0.11	1.66 ± 0.077
UCCGAC	1.65 ± 0.062	1.79 ± 0.1
ACUCUC	1.77 ± 0.076	1.86 ± 0.12
CACCGG	1.754 ± 0.011	1.89 ± 0.12
CCUAAU	1.53 ± 0.042	1.73 ± 0.14
UGGCUU	1.694 ± 0.014	1.88 ± 0.058
AUAUGG	1.56 ± 0.033	1.75 ± 0.14
UUCUCA	1.78 ± 0.073	1.9 ± 0.087
AAAUCC	1.71 ± 0.049	1.83 ± 0.091
UACACC	1.6664 ± 0.0013	1.8 ± 0.1
UGUUAC	1.735 ± 0.0055	1.91 ± 0.14
GUUUCG	1.71 ± 0.051	1.85 ± 0.099

Variant	normalized RNA/DNA level without ligand (log10) (cyclic di-GMP [1])	normalized RNA/DNA level with ligand (log10) (cyclic di-GMP [2])
GUUUCC	1.82 ± 0.07	1.88 ± 0.15
UGCAGG	1.747 ± 0.003	1.85 ± 0.12
UGACUA	1.665 ± 0.0041	1.78 ± 0.084
UGACUG	1.7 ± 0.033	1.84 ± 0.11
GAGACA	1.8 ± 0.033	1.85 ± 0.088
AUCGAU	1.56 ± 0.076	1.77 ± 0.063
CACGUU	1.729 ± 0.0022	1.86 ± 0.088
AACAGG	1.5 ± 0.036	1.66 ± 0.14
CCAUGG	1.65 ± 0.11	1.82 ± 0.02
UUUAUA	1.7 ± 0.035	1.84 ± 0.1
UUUAUU	1.72 ± 0.084	1.88 ± 0.15
UGCACU	1.74 ± 0.021	1.87 ± 0.094
ACGUCC	1.75 ± 0.042	1.93 ± 0.12
GGUAAC	1.743 ± 0.0073	1.85 ± 0.077
CUACGU	1.73 ± 0.017	1.82 ± 0.081
AGCUGU	1.667 ± 0.01	1.8 ± 0.073
AAGCUA	1.56 ± 0.024	1.72 ± 0.12
ACUCGU	1.76 ± 0.043	1.85 ± 0.021
CUGGUU	1.67 ± 0.025	1.83 ± 0.08
UUCAUU	1.77 ± 0.074	1.89 ± 0.094
CAAAUC	1.61 ± 0.034	1.76 ± 0.091
UCGUAU	1.53 ± 0.068	1.76 ± 0.12
GAUGAC	1.65 ± 0.019	1.82 ± 0.12

Variant	normalized RNA/DNA level without ligand (log10) (cyclic di-GMP [1])	normalized RNA/DNA level with ligand (log10) (cyclic di-GMP [2])
GAUGAG	1.55 ± 0.067	1.71 ± 0.059
CGACAG	1.8 ± 0.023	1.87 ± 0.091
UGAAAA	1.73 ± 0.024	1.82 ± 0.1
UAAGGC	1.66 ± 0.058	1.81 ± 0.056
CUGUUC	1.64 ± 0.038	1.79 ± 0.12
UGGACG	1.782 ± 0.011	1.86 ± 0.15
UUCUGU	1.7281 ± 0.00073	1.86 ± 0.1
GUUUUC	1.69 ± 0.025	1.86 ± 0.09
CUUAGG	1.79 ± 0.072	1.89 ± 0.13
GGUGUA	1.6 ± 0.14	1.76 ± 0.14
GAUGGC	1.68 ± 0.051	1.8 ± 0.13
AGGGGA	1.53 ± 0.1	1.59 ± 0.054
CCUCCA	1.68 ± 0.031	1.83 ± 0.088
CUAGUC	1.75 ± 0.039	1.83 ± 0.055
CCCGGG	1.7187 ± 0.00061	1.91 ± 0.14
GUCACA	1.663 ± 0.0013	1.77 ± 0.17
UCAAGA	1.52 ± 0.0098	1.74 ± 0.098
UGUGUC	1.756 ± 0.0091	1.86 ± 0.1
UUAAGG	1.77 ± 0.047	1.9 ± 0.13
GAAUUU	1.652 ± 0.015	1.85 ± 0.12
UAUGCG	1.78 ± 0.029	1.86 ± 0.1
ACCCAG	1.777 ± 0.0092	1.86 ± 0.06
ACCUUA	1.67 ± 0.015	1.79 ± 0.14

Variant	normalized RNA/DNA level without ligand (log10) (cyclic di-GMP [1])	normalized RNA/DNA level with ligand (log10) (cyclic di-GMP [2])
AAGAGC	1.59 ± 0.05	1.71 ± 0.1
AGCUCU	1.76 ± 0.096	1.88 ± 0.17
CAGUCA	1.41 ± 0.1	1.52 ± 0.13
CCUGGU	1.672 ± 0.0096	1.83 ± 0.13
UCCAAC	1.62 ± 0.037	1.78 ± 0.11
UCCAAG	1.6 ± 0.033	1.78 ± 0.097
ACCGGG	1.84 ± 0.027	1.91 ± 0.12
ACCGGC	1.784 ± 0.0037	1.92 ± 0.12
CUCCGC	1.78 ± 0.019	1.91 ± 0.073
AGGUAC	1.67 ± 0.038	1.81 ± 0.077
UCUGGC	1.78 ± 0.025	1.88 ± 0.068
CGGUAG	1.731 ± 0.0046	1.84 ± 0.038
GAGAUG	1.748 ± 0.0058	1.83 ± 0.071
GUUAUU	1.679 ± 0.0041	1.83 ± 0.11
GUUAUC	1.51 ± 0.045	1.74 ± 0.067
GGCACU	1.73 ± 0.12	1.885 ± 0.0081
GGUUAG	1.54 ± 0.062	1.7 ± 0.08
GAUGCU	1.73 ± 0.033	1.85 ± 0.12
GAUGCG	1.82 ± 0.063	1.89 ± 0.13
AACGAA	1.38 ± 0.059	1.59 ± 0.16
UCAUGG	1.77 ± 0.019	1.9 ± 0.08
AUUAGA	1.52 ± 0.12	1.69 ± 0.058
AUUAGG	1.56 ± 0.065	1.72 ± 0.17
